Measurements from the domain aggregation screens of Martell et al. (2025).

Experiment: soluble fraction after stress (log2 fold change); higher = more stays soluble; pooled small domains, quantitative proteomics
Conditions: stress: 75 degC
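Further: 20 min heating vs room temperature control held 20 min.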

| Sequence | soluble fraction (log2) |
| --- | --- |
| HMGGGFLVPSLVGKSLEEARSLSELRGFKLEVGDYVISSEYPAGRVTRQNPANGAKGQEGDVIKVEVSS | -0.00395 |
| HMGGGRELGLDPETGKKISVRLGKFGPFVQLGESGEEDKPVFANLGKNQSIATLSLEEAIALLARPK | 0.187 |
| HMGGGVSSSLAGNVFKVLLPAGSVVEQGQAVIVLEAMKMETEVNAPKSGSVSSVFVNEGDTVEVGDLLFAI | -0.0461 |
| HMGGKWKAIIIYHLKNGPKRFGELRRALISSTETVLSNQLKQLEQDGLVSRQVFGTKPPLKTVYSLTDFG | -3.3 |
| HMGGKWKLRILLALENSAQDALRYGEIKNIVSGITDMMLSQSLRELTADGLIERRQYQEIPPKVEYRLS | -2.31 |
| HMGGKWKPIILYYININSVARYSELKRFIPSINERMLTRQLRELEEDNLIERKVYPIVPPKVEYRLTEYGK | -0.179 |
| HMGGKWSMPIIYILSKGKMRFKELERSVEGINTRMLVKELKNMEANGIVTREVFPTVPPTVEYALT | -0.968 |
| HMGGKYKGVIIGHLIDKTLRYNELQKLISHATPKMLIQQLKELEADGIIQRKLYPVVPPKTEYSLTERG | -0.973 |
| HMGGLAEGTKITLQNTVNVRASMGEDAEKIGTAYAGEKVTVIMSYAEGWTKVTWNDKTGYIKTSLL | -1.5 |
| HMGGLAHPASGEEMEHLFAHLEGELLKSGFLFPPDKAAGMMRNIRAMLTRADFTDQEVRTLRGMIVALSRG | -1.62 |
| HMGGNDALEIAKSNPQVIEVLGEPVTKDGMGSYSVNYKNGHKTSEATIPIEGPNGTATLHVKTSGSDDAL | 0.237 |
| HMGGNKILTWKTDAATTRNQVPINERKEGLEISYKNEERNWVAEKYVGTSFSDDKWGVDYNWNQD | 0.951 |
| HMGGPAGPDFTYTGDDLTRIDYDDGSYKVFTYDAGKLSQIDFTSGGTTTRKTFVYSGDTLIRVDQTI | -0.179 |
| HMGGPEPIPAQIREGDTVYVTKFKQLGLVLKISEDTAEVQIGPLRATVAKTELSKVDATATEHR | -0.0822 |
| HMGGQFVKVEVIAQIFGVTVRRVQQLTQEGVVKTTEIPGEGRRYELVPTIKTYIQYLSDKAY | -4.02 |
| HMGGTFLVRILDPALNIRAQPSLTARINGVIRDKSVYTIVATSFEPKTQITWGKLKSGAGWISIGSKYVKK | -3.4 |
| HMGGVTVQNRETHVNSTVNVRSEQTTESERVALAYQGDAITQIESYENGWSKVEYKGLSGYVMTEYL | 0.275 |
| HMGGYLIGDVAQMVGLSRDALRFYEKKGIIRADKKENGYRYYSEDDIYRLMYILYHRKMNTSLEEIGGLMS | -0.722 |
| HMGHKKLTIELQDEIIVLPKELEKYNLTVSDDKTSLIYTYKSRGEKTGITDLLRDIKDAGLRLKDLITEQ | 0.284 |
| HMGHTVHAVPEAADRQRLDVFVGNLHPTISRAYIQKLSKEDQILVNGKPEKAGFKLRTGHSVSVPDMSE | 0.00554 |
| HMGIAEAKRVIVRTLHDVLGPEADFLTEKIDVAQTAAELRVHAEKYRDMLVDMGKPKKSAAFWEAFEAALP | -0.588 |
| HMGIAKLLTEQEYKIALLAAERRTNAMIAEEMNLTENTVKTHLKHIFDKVGIAGNAKNKRHLLADMMNSER | -0.552 |
| HMGIDISAFSETALQVLRLQAAGYTAKEISEKLHITPRTVKYHASQNYRKLDAKNLVDAVQIAQALHI | -1.79 |

| Sequence | soluble fraction (log2) |
| --- | --- |
| HMGIEQVELASRVRDAVDSLPHHLREIILLSYFQKMSYNQIAETLQVPLGTVKSRLHAAVASFAQAWTQSS | -0.712 |
| HMGIFAQTTKWRDIYTVKKKDTIFGIANKYGLSLPELMEANPEMKQEGYMLQKGTTLFIPFASD | -1.32 |
| HMGIGSTLTDGVRVYASDDEIVVNAPAESDVRIFNAGGAQLYAGRVADVRVAVAKGLYVVTVDGRSTKITV | -1.11 |
| HMGIILDWELFEQFADKLKRKKVDFVIEPYLRFEGRRGEQSTLFIKDPSGNYLEFKAFKNIDMLFEK | -1.78 |
| HMGIPIEAYHESLHRHYIDLWELLDTGKETLIDAEGNEVDKIHLLNAIRFNVNGMLHELLKE | -1.91 |
| HMGIQYVASGHYARMETDAQGVSRLFPPESGAPDESDRLAALSPEVLTRLILPLGDFAPEDVEEMAVD | -0.0745 |
| HMGIRAFDPEAFDERLKEFFSMIAPYKKLDTRSLQPHFPHHAKEVAERIRQLAEAGKIKVDGFYISEL | -0.587 |
| HMGIRDIHITVNGESLKLSKKQNYIFVDIFDFYPFDLSILGGSKLITTINGEQAEFTSPLKDGDVVELYWK | -2.25 |
| HMGISNEETFLLEKMSSGRRYSRKELDNLMGFEKTKTIRLLGSLINKGLVVAEGVNRARRYIR | -1.27 |
| HMGISQAQAMQALRKLIEEEDKHTPLSDQTLMERLKAAGIPLARRTIAKYRESLGIPSAAQRK | -0.266 |
| HMGISVEVPDLKNMSVAEAGSLLKNSGLSYAVVDSDYVKTISPGKILDQNPGRGLRVKKGRIVYLTINSL | -1.69 |
| HMGITDHIYQDLKKRLENGNYPAGTRFPSESTLADEFSVNKMTMNKIVSMLAEQGYLIRGNRGAGTRVAEN | -0.399 |
| HMGITPSIEMILEYFAFKESSETEANKFFNYYSSIGWLVGGKTKMKDWKASARNWIMNQNKFQ | -4.63 |
| HMGIVAPGTLKHLHAVGNSYYPDWETKRHELVTAVTKGRTSSSKELYEAEANRLITRIEELLMTAAQSV | -0.113 |
| HMGIVTMPGQGSKMRFDFDATGDLPSSTSWRGMFAYANNTKRAYVSTGTTMGGYNGWRQLIAMDEYGNYQT | 0.0821 |
| HMGKEIEAPDFKNMTLKEAKIAAKEYKIRIKKGDEVVSEEVEKGRIVSQDPDAGTTIKTGSTVTVNISKGL | 0.131 |
| HMGKELSTVVVPDLTGLSVLEARNVLTKVGLQLTPSGAGIAFKQIPTPGTRLTLGATVTVYFVATGY | -1.47 |
| HMGKELTVPDVVGQNYVSAQEKLIAGGFQVEVADSVYDSRYGRGVVVDQNPHKDTRVKPGRLIYVTVNA | -0.157 |
| HMGKEWPTPDNVEEWKKLVKKARLWPIQADQAQSEETRERNRKKWELFVAYAKRFGYRAGIGETGKPFVNN | -1.15 |
| HMGKINEIVANNIAILRKKNRLSLEELGKLSGVSKSMLALIEKGDGNPTLGILWKIANGLGVPFDELTRRP | -1.35 |
| HMGKLGENIKRIREGMGLSQRQFGELIGKSDSQIWSYENDRTDILASTLYKIAAVANVDFNNLMAGIIP | -1.07 |
| HMGKLYRDRYAPLEPDGARAGDRVFIISLEKEGTLERIDLPRKTATVLLGSSIRSTFPLDDLYQPRG | -0.25 |
| HMGKMTSTLGVHIAAYRKEHGETVAQFASRSGVSVSSIRRIESGISDPSADLVWKISRHMGMTMDDLFKKM | -3.74 |

| Sequence | soluble fraction (log2) |
| --- | --- |
| HMGKNISEEDMLGYFKKIDLDYDAETKEVIAPTFRHDLFRLADLAEEVARFFGYDNIPTTLPSGEAT | 0.185 |
| HMGKPAGLIRELGNHPEDEKPVTLNNGRFGPYVKHGKVMASLTKADSPDDITFDRAIELIAIKAEKMAAKG | 0.173 |
| HMGKPTPASQVATRWLTGNLPESLPVAGPAPSFEALARTVSTDLHPRSVLQELVRLGVAEEANGVVTLRRQ | 0.0474 |
| HMGKPVTMELLIPYSQGSLVHRISEAGEVAKTEYQNDGTYMQVTFTPSAKDHALMQEVASYRI | 0.653 |
| HMGKSDDSLAAEKFIQHVRKNGELSYEQAYRMVHAYFPDFRNFEGMVSGAVKSGYLILIQKSTGLFLRAKE | -3.68 |
| HMGKTEMPFSTFLTEVDKGNIVSVDIRGSEISGNFRDGKGFKTYSPNYPNLVEKLSAKGVAITAGPR | 0.389 |
| HMGKTKFTEMSALELKAYAELNNNSMHWVYRMLYIGGGDVGFRKGMKELGYSGKFIWMTLERLKKS | -1.24 |
| HMGKTTQEIEERSSTSTLTLTQTPKEIISVQGKKSDQSFFTNIQYTQNGKVIVPKQTGIYDTIKVVFTVSL | -1.48 |
| HMGKVLIYKPNMSVSDVAIRLGISNAEIIKRLMGLGVMTSINQTIDRDTIELVAMDLGFSIEN | -1.81 |
| HMGLAGVQSDVKVSFDGDLLVVTSDIARSFNLFAVDGRLIRSVNLIAGRNEIRGLERGFYLAEKQKIFV | -1.93 |
| HMGLAWTVEGRTVLLGRTADRIELYNVGGGLVALARESDRISAPGVGLYVVRVVSDGQSVSQKIWIT | -2.39 |
| HMGLDMSLEREQHRALREASQWYARLADEQVDSDAERAWRHWVAADEANQRAWQYIEAVSQRFDG | -0.605 |
| HMGLDNEGFERLRQKITRLLSEEALPVKELVDSFASKMRQEVLETLAFLQQEGVIEEKNGKLFLK | -0.189 |
| HMGLIDNLTRIMEKKNISAYQLEKAGIVKQTTFTSWKKGTQPALDKIIKIMQYIEVTPNELFGY | -2.95 |
| HMGLKWVYYTNIEPDGNKINNQKLYDILKQKFVYPVIISRDELDSMELKDLTYDSYIDVEGRYFKPYNLD | -2.04 |
| HMGLNPSILVKLGNANIKTIDNLADLASDELKEILEDISITSKEADEIIMRARSSWFEEDDKKEDNI | 0.0765 |
| HMGLPAWVPQNYIDRVTAIYDYSADKDDELTFNEGSTIFVLKKNDDGWWEGVMDGVTGLFPGNYVEAT | -0.971 |
| HMGLQLTPVRRRVLEILLHEHRALGAYDILDKLRSEGLGSQPPVAYRALDFLVTHGFAHKIERLNAF | -0.829 |
| HMGLQRLTVSPEDAGVRIDKYLAEQLPDITRSYLQKLLKDGSVQMNGKPVKASTKTAVGAVIALTIPEP | -0.26 |
| HMGLSAEAARMAIQDAGLSKEDFAQKLGIKKVERVVEWEAGTSKPTFVQAQKIANATNIPFGYLFLVNPPK | 0.285 |
| HMGLTRRAQLEVADANLKRLYPGMHQSWVTAIAEYLHSSYWRYINSLEPEYAASIQRVYEQHIDAM | -0.0229 |
| HMGLTYEQILTDVQRFVTQNHADTLSNEGNPEEARKLLKDYILQYVQNRSYHVDGQTTEELVDSLYED | -0.231 |
| HMGLVDSLEPLLRRVYEALPQRRSMTTERLAVAAGLDEESVKVALARLQLSAFVGVDERGWHRSL | -2.98 |
